Data taken from the supplement of paper PMC9732359.
± gives the uncertainty stated by the source.

Assay: protein stability index of a GFP-peptide fusion (yeast GPS) (PSI 1-4); higher = more stable; sorted into four equal gates, so the index is relative within each strain
Outline: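 Mid-log yeast cultures in leucine-free medium, carrying a pooled plasmid library, were sorted into four equal gates by their GFP/Cherry fluorescence ratio. Each plasmid expressed Cherry along with GFP fused upstream of a tiled 17-residue yeast protein peptide. Plasmids recovered from each gate were PCR-amplified and Illumina-sequenced, with reads assigned to strains by barcodes. The protein stability index was obtained by summing each gate's read frequency weighted by its gate number.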

Sequence: SSSPLAMSETLSKVSLL [PRE8]
- protein stability index (doa10∆): 2.53 ± 0.071
- protein stability index (pdr5∆): 2.83 ± 0.084
- protein stability index (san1∆): 2.67 ± 0.1
- protein stability index (ubr1∆): 2.32 ± 0.059

Sequence: KDALSNSILSVRDPWSI [SRB2]
- protein stability index (doa10∆): 3.27 ± 0.07
- protein stability index (pdr5∆): 3.41 ± 0.087
- protein stability index (san1∆): 3.1 ± 0.06
- protein stability index (ubr1∆): 3.36 ± 0.093

Sequence: DPASFYLFDEIDAALDK [SMC3]
- protein stability index (doa10∆): 2.89 ± 0.075
- protein stability index (pdr5∆): 3.02 ± 0.082
- protein stability index (san1∆): 2.61 ± 0.083
- protein stability index (ubr1∆): 2.72 ± 0.046

Sequence: NSQERVQDLGSAISVTN [SIR2]
- protein stability index (doa10∆): 2.45 ± 0.16
- protein stability index (pdr5∆): 3.11 ± 0.11
- protein stability index (san1∆): 3.01 ± 0.092
- protein stability index (ubr1∆): 3.25 ± 0.19

Sequence: GIKKHSLWRRTVYSLSQ [YDL116W/NUP84]
- protein stability index (doa10∆): 1.44 ± 0.066
- protein stability index (pdr5∆): 1.29 ± 0.071
- protein stability index (san1∆): 1.29 ± 0.14
- protein stability index (ubr1∆): 1.48 ± 0.041

Sequence: KKSEEKLREKVNDVELA [MTW1]
- protein stability index (doa10∆): 3.08 ± 0.13
- protein stability index (pdr5∆): 3.03 ± 0.13
- protein stability index (san1∆): 3.05 ± 0.14
- protein stability index (ubr1∆): 3.06 ± 0.21

Sequence: KGKARLGTLVNQKTSAV [RPL8A]
- protein stability index (doa10∆): 2.65 ± 0.078
- protein stability index (pdr5∆): 2.38 ± 0.076
- protein stability index (san1∆): 3.15 ± 0.083
- protein stability index (ubr1∆): 2.94 ± 0.057

Sequence: EGHDWKAPTKLDDPEAV [DIS3]
- protein stability index (doa10∆): 3.31 ± 0.057
- protein stability index (pdr5∆): 3.28 ± 0.054
- protein stability index (san1∆): 3.23 ± 0.041
- protein stability index (ubr1∆): 3.25 ± 0.046

Sequence: VVTMSVKSVNDPSQNRL [RPC37]
- protein stability index (doa10∆): 2.27 ± 0.19
- protein stability index (pdr5∆): 2.56 ± 0.27
- protein stability index (san1∆): 2.42 ± 0.17

Sequence: VRILRLITTNSVEEVIL [SNF2]
- protein stability index (doa10∆): 2.3 ± 0.093
- protein stability index (pdr5∆): 2.12 ± 0.06
- protein stability index (san1∆): 2.31 ± 0.081
- protein stability index (ubr1∆): 1.68 ± 0.033

Sequence: VAFVCSPISDSRDELIR [RPN10]
- protein stability index (doa10∆): 2.42 ± 0.093
- protein stability index (pdr5∆): 2.56 ± 0.11
- protein stability index (san1∆): 1.67 ± 0.12
- protein stability index (ubr1∆): 2.34 ± 0.099

Sequence: NVGKPDQSIASGNTNGA [YOR098C/NUP1]
- protein stability index (doa10∆): 3 ± 0.2
- protein stability index (pdr5∆): 2.09 ± 0.28
- protein stability index (san1∆): 2.83 ± 0.085
- protein stability index (ubr1∆): 2.93 ± 0.1

Sequence: RVHRRNNRWAENNYKKR [RPS23A]
- protein stability index (doa10∆): 3.26 ± 0.29
- protein stability index (pdr5∆): 3.55 ± 0.21
- protein stability index (ubr1∆): 3.54 ± 0.1

Sequence: EQQVKEAEMAYVKAVSD [SMC4]
- protein stability index (doa10∆): 3.21 ± 0.082
- protein stability index (pdr5∆): 2.89 ± 0.093
- protein stability index (san1∆): 2.83 ± 0.08
- protein stability index (ubr1∆): 2.83 ± 0.069

Sequence: PEESKPINLQNGEEDEV [YLR335W/NUP2]
- protein stability index (doa10∆): 2.9 ± 0.075
- protein stability index (pdr5∆): 2.92 ± 0.077
- protein stability index (san1∆): 3.1 ± 0.046
- protein stability index (ubr1∆): 3.1 ± 0.062

Sequence: QKCFKLTHRLGGDTCSS [POP1]
- protein stability index (doa10∆): 2.27 ± 0.059
- protein stability index (pdr5∆): 1.85 ± 0.056
- protein stability index (san1∆): 2.55 ± 0.068
- protein stability index (ubr1∆): 2.51 ± 0.054

Sequence: LNEMLNTRKNMSISLES [DIS3]
- protein stability index (doa10∆): 2.66 ± 0.053
- protein stability index (pdr5∆): 2.91 ± 0.066
- protein stability index (san1∆): 2.63 ± 0.069
- protein stability index (ubr1∆): 2.95 ± 0.051

Sequence: IEAEEAEEIGVEHLLRD [RPN8]
- protein stability index (doa10∆): 3.1 ± 0.19
- protein stability index (san1∆): 3.15 ± 0.13
- protein stability index (ubr1∆): 3.23 ± 0.068

Sequence: KQRTKKEDKSEAIDGNG [SNF2]
- protein stability index (doa10∆): 3.55 ± 0.13
- protein stability index (pdr5∆): 3.36 ± 0.075
- protein stability index (san1∆): 3.17 ± 0.073
- protein stability index (ubr1∆): 3.19 ± 0.072

Sequence: MTSENPDVLLSRVINVV [RRP6]
- protein stability index (doa10∆): 1.39 ± 0.12
- protein stability index (pdr5∆): 1.61 ± 0.083
- protein stability index (san1∆): 1.49 ± 0.12
- protein stability index (ubr1∆): 2.27 ± 0.14

Sequence: AKQALDLYHFALNYENE [SNF2]
- protein stability index (doa10∆): 2.47 ± 0.098
- protein stability index (pdr5∆): 2.83 ± 0.084
- protein stability index (san1∆): 2.69 ± 0.095
- protein stability index (ubr1∆): 1.83 ± 0.1
